Experiment: soluble on expression in E. coli; label from the status in PepcDB or PDB records

Row | Sequence | soluble on expression in E. coli
1 | SESQTLDKVYQMKSKPRGYCLIINNHNFAKAREKVPKLHSIRDRNGTHLDAGALTTTFEELHFEIKPHDDCTVEQIYEILKIYQLMDHSNMDCFICCILSHGDKGIIYGTDGQEAPIYELTSQFTGLKCPSLAGKPKVFFIQACQGDNYQKGIPVETASEEQPYLEMALSSPQTRYIPDEADFLLGMATVNNCVSYRNPAEGTWYIQSLCQSLRERCPRGDDILTILTEVNYEVSNKDDKKNMGKQMPQPTFTLRKKLVFPSDVEHHHHHH | soluble
2 | IRTHLNLPSDKKVIMYAPTWRDDEFVSKGKYLFELKIDLDNLYKELGDDYVILLRMHYLISNALDLSGYENFAIDVSNYNDVSELFLISDCLITDYSSVMFDYGILKRPQFFFAYDIDKYDKGLRGFYMNYMEDLPGPIYTEPYGLAKELKNLDKVQQQYQEKIDAFYDRFCSVDNGKASQYIGDLIHK | not soluble
3 | MQVQRAITRNLAKANGYFNKTFKPPTVNYTVRGLKAGVAYLQQNQIRFNPILLQENGQAFIQQVIPHELAHILVFQQFGHVLPHGKEWQMMMEQVLGTSAEVYHTFNTQNVAGQQFAYICACQTHLLSIRLHNAILKNKRQYICKQCKQVLYYKDVLANYSNNTKKLEHHHHHH | not soluble
4 | MESAKSIIGGHQNVILMRHGDRLDNFEPLWTSTAARPWDPPLAQDGKDRAFRTGQRIRSQLGVPIHRVFVSPFLRCIQTASEVVAALSAVDFDPIAMSSKDVLSIDNTKIKVAIEFGLSEIPHPIFIKSEVAPKDGKFDFKISDLEAMFPEGTVDSNVDMVYKEVPEWGESAQAFEDRYYKTVKILAEKYPSENLLLVTHWGAVSVAFYNYFKDATKYVVDYCGSVEMRRQILNGDGFGKFEVVTSHGVSYKYTKIPVHDHVVVSRQSPL | soluble
5 | GPGSMSLIFFCIIPHPFTRTKCSKVSIIMQMLAPGAFFNALKVRGVTHFFGVPDPILKYFCAFVASHTTPKEHIITANEGNAVAMAAGYHLATGGLPLVYMKNSGLGDALNPLISLTHAEACSIPMFIVVGWRGAPDAGNELPCAAEGRLTEGILRAAEVPYIILSSACGNGEQSMETALDMALKHVHNSRTPYAFLVPPNFFEECAYEGVGEGIAELPMTRREAVEQALRQIDRGDIVVGAASFLAREIFEVQECAGMRHGPQFFPVGSMGHCSSVAAGIALAKPERQVFCFDGDGAFLMHMGSSATIGGVAAIHLIGTGETSLMRNYKHVVFNNGSHDSAGGQPTVSFDVSLTQVASACGFRTVREEPVMDLGETVRALQELKKAEGPAFLEVFVRRGGHSNPQCELPSLDESKQALTNCLRG | not soluble
6 | MTAARSAPSPAGAPRPGLRERKKTRTREAIRAATYGLIRQQGYEATTVEQIAERAEVSPSTVLRYFPTREDIVLTDEYDPVMAAELAARPAGEPWSDSLRHVLRKALGLGAGEEAELIRLRTRLLAEVPAVRARMLENMSDTGRMLARAIADRTGLDPDGLEVRIVSMSLVGGLMEVSRYWAEHDHEESLAELVDRALDALENGLPALRESDRESDREGDRGGHREDRREGPRKD | soluble
7 | MSPVDFKDKVVIITGAGGGLGKYYSLEFAKLGAKVVVNDLGGALNGQGGNSKAADVVVDEIVKNGGVAVADYNNVLDGDKIVETAVKNFGTVHVIINNAGILRDASMKKMTEKDYKLVIDVHLNGAFAVTKAAWPYFQKQKYGRIVNTSSPAGLYGNFGQANYASAKSALLGFAETLAKEGAKYNIKANAIAPLARSRMTESIMPPPMLEKLGPEKVAPLVLYLSSAENELTGQFFEVAAGFYAQIRWERSGGVLFKPDQSFTAEVVAKRFSEILDYDDSRKPEYLKNQYPFMLNDYATLTNEARKLPANDASGAPTVSLKDKVVLITGAGAGLGKEYAKWFAKYGAKVVVNDFKDATKTVDEIKAAGGEAWPDQHDVAKDSEAIIKNVIDKYGTIDILVNNAGILRDRSFAKMSKQEWDSVQQVHLIGTFNLSRLAWPYFVEKQFGRIINITSTSGIYGNFGQANYSSSKAGILGLSKTMAIEGAKNNIKVNIVAPHAETAMTLSIMREQDKNLYHADQVAPLLVYLGTDDVPVTGETFEIGGGWIGNTRWQRAKGAVSHDEHTTVEFIKEHLNEITDFTTDTENPKSTTESSMAILSAVGGD | soluble
8 | MGSDKIHHHHHHMAHYEVKPSFYNYVFSPYLEPAIKVNPGDTVSLYTDDAFESRITSEDVSPKAAVRNAKFLNPQSGPVYINGAEPGDTLAVHFESIEFTRDWAVSCVMEYFGGLQSNSITKMLQKPLVEEVYIWKSKDKGQTWTNDKIGVTIPANPFCGTLATAPDTEAIQALTPGQFGGNMDCPDICPGHTIYLPVHNPGALFYIGDCHAAQGQGELCGVALEISAKATLKFDVIKNKVTNWPRIESPEKIMSVGSAKPMEDAARIAYADLIDWMVSDYGFKVLDAYELLTMVGGLYVANMVDTTYSLCASIEKKYLKRNS | not soluble
9 | MGSDKIHHHHHHMYWVSEDNVAGKPGKVLYVILPTIGCYRYRIGKPCYMCSYPAQAPRKTSQERIFGYFLEAIGKIKGKEGRFGIRIFTSGSFFDSSEVRRGTRIKIFQEIAKLDNVFEVVVETRSEIIREEWVRELVEIIEGKWFEVALGLETANDDIADISINKGSTFRDFVRASEIIHKAGAKVKTYLLFKPIFLSEGDAIEEMKRSIELAEPYTDTFSINMTNIQKGTLYEKIWERGEYRTPWLWSVVEVLKWAKRKFPGKRFLSDPVGAGSVRGPHNCGDSRDKPVERAIRKFSTTQDLRYLEVSGDCIEEWKYIVSQGLLDWQLIKSQVSPFSTE | not soluble
10 | MVDKDIHSEHWYHGLLPREDIKAMLRKNGDFLVRSTEPKAGEPRQYVLSAMQSEELEDAGVKHYVMRLNSSNQIFLEAKGFETIASLVNYYMSSKEPIKKLTVLKTPILKQPWEIEHSQVELTKKLGEGAFGEVWKGKLTLKNGNVENCAIKTAKLESLNKEQIKEIMREARLMRNLDHPNVVKFYGVGASQEPLYVIMELADCGALDSYLQKNPNLVPDKKMEMIYQAACGISYMHEKKLLHRDIAARNCLYGGGQVKIADFGLSREGISYVMDLTKKVPIRWLAPETLKAGIYSPKTDVFAFGIMAWEITENGKEPYPDMRVADVVGKVRNGYRMRFDPVFVDFRFGDYVTKHCWAENPADRVSMADVLRYLQTTFGMKPVVLSILSSNRSTEEEMKTMKPPMFSVKRNNKKKPK | not soluble
11 | MSNQDYTGVRVEGARKLRSTLKKAGIDVRDDMKQAHKDAASIVSRRAAQITPVGPGSRRHKPGQLKASVRPAGTQTAAIVRAGKKRVPYAGPIQWGWHKRKIKPTFFLTRAASDTEPAWLKGYEKKFNQILDSIEGK | not soluble
12 | MSLTPYNVARKRGELKYLLLTESQFDGGMMLRFVLRSETKLTQLRAALPWLRAQLPQLRVITANIQPVHMAIMEGETEIYLTDQQALAERFNDVPLWIRPQSFFQTNPTVASRLYATARDWVGQLPVRHMWDLFCGVGGFGLHCATPQMQLTGIEIAPEAIACAKQSAAELGLTRLHFQALDSTQFATAQGETPDLVLVNPPRRGIGKPLCDYLAQMAPRFIIYSSCNAQTMAQDIRHLPNYRIQRVQLFDMFPHTAHYEVLALLRRSEGHHHHHH | not soluble
13 | MEITDVRIRKIDSEGKMKAVVSVTFDNEFVVHDIKVIESQNGLFIAMPSRKAPDGEFRDIAHPINAETRSKIQTAILDKYESICAGSTETEGNN | soluble
14 | MLKKAEKFEKIFRLESSLRALERVRDFLSQESYERLRELVLIRLKGIKIEEKELNSKVAVAFSGGSDSSATYKILAWAGFKVYPITAKLPQMRDEVLKRLESGGAIFVEIPEYMEVMEDLIRKRTAICGRCHSMVMRAVEERARELGAEIVASGDMLTVGSGSIYEKDGIVILNLPAFLALDKKELLEILGWKKYELKYGCPLWKEAAKRAPVLKKFGLQRVLRELRGGALPKEFAKELIIDILRA | not soluble
15 | MDNHAEAHWQNGWLQSIRHTPSPNFSPRETGETVSLIVLHNISLPPFEYGTDAVEKLFANRLDPDGHPFFSLIHTLRVSSHFLIKRDGETVQFVSCDNMAYHAGVSSFGGREKCNAFSIGIELEGCDFEPFAEAQYRSLEALLDAICRHYPVTAVTGHQDIAPGRKTDPGHFFDWRRIREKGFLVDRNAV | not soluble
16 | MSKFNRIHLVVLDSVGIGAAPDADKFFNAGVADTDSDTLGHISEAAGLSVPNMAKIGLGNISRPIPLKTVPTEDNPTGYVTKLEEVSLGKDTMTGHWEIMGLNITEPFDTFWNGFPEEILTKIEEFSGRKIIREANKPYSGTAVIDDFGPRQMETGELIVYTSADPVLQIAAHEDIIPVEELYKICEYARSITLERPALLGRIIARPYVGDPGNFTRTANRHDYAVSPFQDTVLNKLADAGVPTYAVGKINDIFNGSGITNDMGHNKSNSHGIDTLIKTLQLPEFTKGFSFTNLVDFDANFGHRRDPEGYRDCLHEFDNRLPEIIANMKEDDLLLITADHGNDPTYAGTDHTREYIPLLAYSVSFTGNGLIPQGHFADISATVAENFGVDTAMIGESFLSHLK | not soluble
17 | NDPEWFAIVKWTLFAMLNAEEAKITSKNVEAEAKATKNPDVARMLGADGTYGKDLNLPKDWVVQIVKQVGNYGEVFERNLGEGTPLKIKRGQNALWNAGGIQYAPPIR | not soluble
18 | SPTNLANGLSSLLKPLKFFHLPIDEISLMLALSLRFVPTLMDETGKIMNAQRARGVDFGEGNIFQQMRSLVPIFIPQFIASFNRADELATAMESRGYRGAAKRTKFNRLKFK | not soluble
19 | MGSDKIHHHHHHMKKILYLHAGAELYGADKVLLELIKGLDKNEFEAHVILPNDGVLVPALREVGAQVEVINYPILRRKYFNPKGIFDYFISYHHYSKQIAQYAIENKVDIIHNNTTAVLEGIYLKRKLKLPLLWHVHEIIVKPKFISDSINFLMGRFADKIVTVSQAVANHIKQSPHIKDDQISVIYNGVDNKVYYQSDARSVRERFDIDEEALVIGMVGRVNAWKGQGDFLEAVAPILEQNPKAIAFIAGSAFEGEEWRVVELEKKISQLKVSSQVRRIDYYANTTELYNMFDIFVLPSTNPDPLPTVVLEAMACGKPVVGYRHGGVCEMVKEGVNGFLVTPNSPLNLSKVILQLSENINLRKKIGNNSIERQKEHFSLKSYVKNFSKVYTSLKVY | not soluble
20 | MGHHHHHHSHMKNLVLKIISGSFPPVSLHYSYDLRSLVSQLFKRNPRDRPSVNSILEKGFIAKRIEKFLSPQLIAEEFCLKTFSKFGSQPIPAKRPASGQNSISVMPAQKITKPAAKYGIPLAYKKYGDKKLHEKKPLQKHKQAHQTPEKRVNTGEERRKISEEAARKRRLEFIEKEKKQKDQIISLMKAEQMKRQEKERLERINRAREQGWRNVLSAGGSGEVKAPFLGSGGTIAPSSFSSRGQYEHYHAIFDQMQQQRAEDNEAKWKREIYGRGLPERGILPGVRPGFPYGAAGHHHFPDADDIRKTLKRLKAVSKQANANRLDCDDP | not soluble
21 | MNNAALRHWKQQQRARLRELRQQVPVTQRMLWSDAITAVLTQGFPFLENQRIGFYWPHQGEYDPIPAMTFLRTRGATLALPEVISKDEPLRFIEWWPEAPMKKDIYGIPFPDNTRGITVDSIIIPLLGFDEQGYRLGYGSGYFDRTLAAMSPRPLAIGVAFEILRLPTIHPQQHDIPMDYIVTEQSILHRTDTGLVPLTAPIVQSETALEHHHHHH | soluble
22 | MRLNIVVVGVGGQGALTTSGIIARAAMRAGLNVVTAETHGMAQRGGSVEVHVRIGDVRAPLIPEGGADVMIALEPAEALRYAKFLNKNTLVILNTRKIIPPSVTAGTAKYPELDEIIGELRKVTPRVIPVNASEIAEKAGSVLATNVVVVGMLFGYYSMPFGIEHVEEAIRETMKSKIVDLNLKALKMGYNQAI | not soluble
